# Article PMC6013234
# Biological target: T1, DENR (in DENR-MCTS1 complex, coexpressed);MCTS1 (in DENR-MCTS1 complex, coexpressed) (human;human) (UniProt O43583+Q9ULC4)
# T1 sequence 1: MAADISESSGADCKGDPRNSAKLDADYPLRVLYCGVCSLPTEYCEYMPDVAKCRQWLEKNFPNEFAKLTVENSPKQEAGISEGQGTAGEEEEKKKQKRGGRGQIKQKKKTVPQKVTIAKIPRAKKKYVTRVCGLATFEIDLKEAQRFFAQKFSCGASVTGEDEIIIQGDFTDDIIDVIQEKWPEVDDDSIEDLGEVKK
# T1 sequence 2: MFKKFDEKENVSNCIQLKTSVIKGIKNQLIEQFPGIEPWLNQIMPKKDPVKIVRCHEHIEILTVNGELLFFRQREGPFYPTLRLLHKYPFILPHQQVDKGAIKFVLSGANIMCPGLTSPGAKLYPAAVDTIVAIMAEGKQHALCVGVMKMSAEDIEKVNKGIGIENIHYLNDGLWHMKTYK
# Test: EMSA
# Conditions: Scatchard, 5 replicates; general value, per-tRNA Kd only in S3E' Fig; 50 mM Tris pH 7.5, 150 mM NaCl, 15 mM imidazole (protein eluted in 300 mM imidazole, 2 mM DTT added), protein 0.25-16 uM, RNA 1 uM (3 uM yeast tRNA mix), 30 min
substance,measurement,value
"tRNA, species not specified in text",Kd,1.5 µM
